Legend:
Test in all cases: holdup assay
Design in all cases: key: below the threshold = too weak to quantify, mostly under pKd 3.1 to 4
Settings in all cases: plain residues with an end cap or a label only (N-terminal biotin on a linker: ado-ado)
TJP2_1, Q9UDY2 = molecular target: TJP2_1, Q9UDY2
TJP1_2, Q07157 = molecular target: TJP1_2, Q07157
GORASP2, Q9H8Y8 = molecular target: GORASP2, Q9H8Y8
RADIL, Q96JH8 = molecular target: T1, RADIL, Q96JH8
T1 sequence (Q96JH8 971-1071, limits assumed, looked up): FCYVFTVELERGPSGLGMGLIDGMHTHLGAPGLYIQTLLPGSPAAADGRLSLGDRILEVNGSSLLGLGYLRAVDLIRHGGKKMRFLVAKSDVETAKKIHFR

DLG3_2, Q92796 = molecular target: T2, DLG3_2, Q92796
T2 sequence (Q92796 221-321, limits assumed, looked up): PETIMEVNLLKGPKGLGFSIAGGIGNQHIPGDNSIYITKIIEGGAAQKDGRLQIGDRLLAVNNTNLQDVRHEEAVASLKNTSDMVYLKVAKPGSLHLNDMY

GRASP, Q7Z6J2 = molecular target: GRASP, Q7Z6J2
Sequence of GRASP, Q7Z6J2 (Q7Z6J2 96-193): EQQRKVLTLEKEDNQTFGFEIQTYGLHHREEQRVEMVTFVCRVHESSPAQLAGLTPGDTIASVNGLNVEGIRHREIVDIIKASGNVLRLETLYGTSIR

MAGI2_3, Q86UL8 = molecular target: MAGI2_3, Q86UL8
Sequence of MAGI2_3, Q86UL8 (Q86UL8 600-682): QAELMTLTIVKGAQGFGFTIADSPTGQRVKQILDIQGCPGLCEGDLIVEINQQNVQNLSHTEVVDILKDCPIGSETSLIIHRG

SCRIB_2, Q14160 = molecular target: SCRIB_2, Q14160
Sequence of SCRIB_2, Q14160 (Q14160 857-960): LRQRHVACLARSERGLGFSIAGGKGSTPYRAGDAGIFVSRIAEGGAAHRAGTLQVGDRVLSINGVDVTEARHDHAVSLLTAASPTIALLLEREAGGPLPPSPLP

ARHGEF12, Q9NZN5-2 = molecular target: ARHGEF12, Q9NZN5-2
Sequence of ARHGEF12, Q9NZN5-2 (Q9NZN5 other isoform, or with tags, fused parts or gaps): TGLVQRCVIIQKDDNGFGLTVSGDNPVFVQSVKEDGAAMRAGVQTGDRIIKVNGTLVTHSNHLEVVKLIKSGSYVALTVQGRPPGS

APBA1_1, Q02410 = molecular target: T3, APBA1_1, Q02410
T3 sequence (Q02410 651-752, limits assumed, looked up): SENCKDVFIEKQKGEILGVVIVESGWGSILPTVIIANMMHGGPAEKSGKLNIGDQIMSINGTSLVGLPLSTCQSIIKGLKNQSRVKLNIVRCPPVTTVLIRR

MAGI3_2, Q5TCQ9 = molecular target: MAGI3_2, Q5TCQ9
Sequence of MAGI3_2, Q5TCQ9 (Q5TCQ9 398-503): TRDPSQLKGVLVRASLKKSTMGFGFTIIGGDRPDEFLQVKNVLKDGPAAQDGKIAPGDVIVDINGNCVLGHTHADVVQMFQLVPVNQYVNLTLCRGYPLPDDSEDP

GRIP1_5, Q9Y3R0 = molecular target: T4, GRIP1_5, Q9Y3R0
T4 sequence (Q9Y3R0 568-668, limits assumed, looked up): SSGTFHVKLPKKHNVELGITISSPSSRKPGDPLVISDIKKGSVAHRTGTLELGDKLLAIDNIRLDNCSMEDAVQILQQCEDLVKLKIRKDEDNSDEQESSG

PDLIM1, O00151 = molecular target: PDLIM1, O00151
Sequence of PDLIM1, O00151 (O00151 1-87): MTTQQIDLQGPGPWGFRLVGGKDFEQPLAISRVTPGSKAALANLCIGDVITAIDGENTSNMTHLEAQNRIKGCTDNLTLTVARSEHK

MPDZ_5, O75970 = molecular target: T5, MPDZ_5, O75970
T5 sequence (O75970 695-796, limits assumed, looked up): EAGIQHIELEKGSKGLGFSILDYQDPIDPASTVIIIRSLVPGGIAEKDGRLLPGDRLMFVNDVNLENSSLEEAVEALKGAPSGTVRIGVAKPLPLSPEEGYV

MPP6, Q9NZW5 = molecular target: T6, MPP6, Q9NZW5
T6 sequence (Q9NZW5 125-219, limits assumed, looked up): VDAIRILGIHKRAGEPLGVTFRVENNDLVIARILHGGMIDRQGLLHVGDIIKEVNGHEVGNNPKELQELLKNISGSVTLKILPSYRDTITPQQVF

IL16_1, Q14005 = molecular target: IL16_1, Q14005
Sequence of IL16_1, Q14005 (Q14005 210-306): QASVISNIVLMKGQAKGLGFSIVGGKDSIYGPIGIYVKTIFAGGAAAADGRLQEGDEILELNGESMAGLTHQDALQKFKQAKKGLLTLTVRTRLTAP

DLG2_2, Q15700 = molecular target: DLG2_2, Q15700
Sequence of DLG2_2, Q15700 (Q15700 189-283): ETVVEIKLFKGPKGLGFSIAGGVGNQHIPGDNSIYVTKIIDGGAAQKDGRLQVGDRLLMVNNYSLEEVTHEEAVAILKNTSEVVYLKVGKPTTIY

DLG4_3, P78352 = molecular target: DLG4_3, P78352
Sequence of DLG4_3, P78352 (P78352 306-403): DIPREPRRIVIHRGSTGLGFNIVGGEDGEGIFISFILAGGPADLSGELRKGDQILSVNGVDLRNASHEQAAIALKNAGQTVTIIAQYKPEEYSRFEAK

DLG5_1, Q8TDM6 = molecular target: DLG5_1, Q8TDM6
Sequence of DLG5_1, Q8TDM6 (Q8TDM6 617-713): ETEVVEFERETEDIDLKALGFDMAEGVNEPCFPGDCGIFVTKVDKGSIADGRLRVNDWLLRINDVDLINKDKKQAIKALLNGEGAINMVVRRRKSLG

LDB3, O75112 = molecular target: LDB3, O75112
Sequence of LDB3, O75112 (O75112 1-94): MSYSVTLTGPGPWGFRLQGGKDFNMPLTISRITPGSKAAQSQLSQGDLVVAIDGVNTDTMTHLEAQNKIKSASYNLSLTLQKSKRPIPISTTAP

FRMPD4, Q14CM0 = molecular target: FRMPD4, Q14CM0
Sequence of FRMPD4, Q14CM0 (Q14CM0 67-160): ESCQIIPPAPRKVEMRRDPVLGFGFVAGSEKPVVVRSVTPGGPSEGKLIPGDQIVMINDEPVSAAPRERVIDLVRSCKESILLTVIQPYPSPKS

SIPA1L2, Q9P2F8 = molecular target: T7, SIPA1L2, Q9P2F8
T7 sequence (Q9P2F8 945-1036, limits assumed, looked up): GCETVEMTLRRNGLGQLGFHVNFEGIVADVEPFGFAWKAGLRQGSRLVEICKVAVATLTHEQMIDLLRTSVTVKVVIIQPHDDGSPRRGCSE

SCRIB_3, Q14160 = molecular target: SCRIB_3, Q14160
Sequence of SCRIB_3, Q14160 (Q14160 999-1103): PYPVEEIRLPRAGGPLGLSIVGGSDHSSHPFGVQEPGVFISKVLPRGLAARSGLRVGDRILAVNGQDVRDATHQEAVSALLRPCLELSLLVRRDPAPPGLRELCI

DLG3_3, Q92796 = molecular target: T8, DLG3_3, Q92796
T8 sequence (Q92796 374-475, limits assumed, looked up): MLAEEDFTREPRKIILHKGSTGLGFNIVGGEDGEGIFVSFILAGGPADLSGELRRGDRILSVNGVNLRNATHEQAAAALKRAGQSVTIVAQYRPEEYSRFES

MAGI2_2, Q86UL8 = molecular target: MAGI2_2, Q86UL8
Sequence of MAGI2_2, Q86UL8 (Q86UL8 410-522): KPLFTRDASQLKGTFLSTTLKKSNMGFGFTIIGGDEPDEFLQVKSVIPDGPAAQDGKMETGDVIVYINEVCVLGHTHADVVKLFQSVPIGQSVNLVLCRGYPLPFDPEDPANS

LIN7A, O14910 = molecular target: T9, LIN7A, O14910
T9 sequence (O14910 103-200, limits assumed, looked up): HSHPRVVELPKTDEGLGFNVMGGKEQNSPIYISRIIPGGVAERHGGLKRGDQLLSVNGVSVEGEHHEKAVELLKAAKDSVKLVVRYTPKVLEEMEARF

MAGI1_2, Q96QZ7 = molecular target: MAGI1_2, Q96QZ7
Sequence of MAGI1_2, Q96QZ7 (Q96QZ7 456-580): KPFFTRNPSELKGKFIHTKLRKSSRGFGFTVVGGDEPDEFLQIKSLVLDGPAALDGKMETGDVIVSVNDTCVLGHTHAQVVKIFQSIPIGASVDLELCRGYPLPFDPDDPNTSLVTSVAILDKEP

SHANK1, Q9Y566 = molecular target: T10, SHANK1, Q9Y566
T10 sequence (Q9Y566 658-767, limits assumed, looked up): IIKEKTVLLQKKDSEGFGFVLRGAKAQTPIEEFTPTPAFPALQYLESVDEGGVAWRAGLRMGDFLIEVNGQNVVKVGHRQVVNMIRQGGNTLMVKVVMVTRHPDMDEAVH

Sequence of TJP2_1, Q9UDY2 (Q9UDY2 24-128): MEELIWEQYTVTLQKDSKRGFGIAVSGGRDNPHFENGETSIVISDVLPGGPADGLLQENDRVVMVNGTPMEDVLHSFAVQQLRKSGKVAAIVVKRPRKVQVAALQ
Sequence of TJP1_2, Q07157 (Q07157 181-274): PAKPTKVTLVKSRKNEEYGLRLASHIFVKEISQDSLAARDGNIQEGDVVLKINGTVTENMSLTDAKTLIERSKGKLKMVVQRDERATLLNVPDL

Binder: PEKVSNTTVV [IGSF5, Q9NSI5]
- pKd (TJP2_1, Q9UDY2): below the threshold
- pKd (TJP1_2, Q07157): below the threshold
- pKd (GORASP2, Q9H8Y8): 4.33
- pKd (RADIL, Q96JH8): 4.3
- pKd (DLG3_2, Q92796): 4.73
- pKd (GRASP, Q7Z6J2): 4.38
- pKd (MAGI2_3, Q86UL8): 3.51
- pKd (SCRIB_2, Q14160): below the threshold
- pKd (ARHGEF12, Q9NZN5-2): 4.21
- pKd (APBA1_1, Q02410): below the threshold
- pKd (MAGI3_2, Q5TCQ9): 4.44
- pKd (GRIP1_5, Q9Y3R0): below the threshold
- pKd (PDLIM1, O00151): below the threshold
- pKd (MPDZ_5, O75970): below the threshold
- pKd (MPP6, Q9NZW5): below the threshold
- pKd (IL16_1, Q14005): below the threshold
- pKd (DLG2_2, Q15700): 4.44
- pKd (DLG4_3, P78352): below the threshold
- pKd (DLG5_1, Q8TDM6): below the threshold
- pKd (LDB3, O75112): below the threshold
- pKd (FRMPD4, Q14CM0): below the threshold
- pKd (SIPA1L2, Q9P2F8): below the threshold
- pKd (SCRIB_3, Q14160): below the threshold
- pKd (DLG3_3, Q92796): below the threshold
- pKd (MAGI2_2, Q86UL8): 4.13
- pKd (LIN7A, O14910): below the threshold
- pKd (MAGI1_2, Q96QZ7): 3.54
- pKd (SHANK1, Q9Y566): below the threshold

Binder: EAVTVESTSL [SLC22A11, Q9NSA0]
- pKd (TJP2_1, Q9UDY2): below the threshold
- pKd (TJP1_2, Q07157): below the threshold
- pKd (GORASP2, Q9H8Y8): below the threshold
- pKd (RADIL, Q96JH8): below the threshold
- pKd (DLG3_2, Q92796): below the threshold
- pKd (GRASP, Q7Z6J2): 5.36
- pKd (MAGI2_3, Q86UL8): below the threshold
- pKd (SCRIB_2, Q14160): 3.79
- pKd (ARHGEF12, Q9NZN5-2): 5.17
- pKd (APBA1_1, Q02410): below the threshold
- pKd (MAGI3_2, Q5TCQ9): below the threshold
- pKd (GRIP1_5, Q9Y3R0): below the threshold
- pKd (PDLIM1, O00151): 3.71
- pKd (MPDZ_5, O75970): below the threshold
- pKd (MPP6, Q9NZW5): 3.95
- pKd (IL16_1, Q14005): below the threshold
- pKd (DLG2_2, Q15700): below the threshold
- pKd (DLG4_3, P78352): below the threshold
- pKd (DLG5_1, Q8TDM6): below the threshold
- pKd (LDB3, O75112): below the threshold
- pKd (FRMPD4, Q14CM0): 4.23
- pKd (SIPA1L2, Q9P2F8): below the threshold
- pKd (SCRIB_3, Q14160): 4.75
- pKd (DLG3_3, Q92796): 3.6
- pKd (MAGI2_2, Q86UL8): below the threshold
- pKd (LIN7A, O14910): below the threshold
- pKd (MAGI1_2, Q96QZ7): below the threshold
- pKd (SHANK1, Q9Y566): 5.68

Binder: QQGLLPHSSC [TYRO3, Q06418]
- pKd (TJP2_1, Q9UDY2): below the threshold
- pKd (TJP1_2, Q07157): below the threshold
- pKd (GORASP2, Q9H8Y8): below the threshold
- pKd (RADIL, Q96JH8): below the threshold
- pKd (DLG3_2, Q92796): below the threshold
- pKd (GRASP, Q7Z6J2): 3.97
- pKd (MAGI2_3, Q86UL8): below the threshold
- pKd (SCRIB_2, Q14160): below the threshold
- pKd (ARHGEF12, Q9NZN5-2): 4.18
- pKd (APBA1_1, Q02410): below the threshold
- pKd (MAGI3_2, Q5TCQ9): below the threshold
- pKd (GRIP1_5, Q9Y3R0): below the threshold
- pKd (PDLIM1, O00151): below the threshold
- pKd (MPDZ_5, O75970): below the threshold
- pKd (MPP6, Q9NZW5): below the threshold
- pKd (IL16_1, Q14005): below the threshold
- pKd (DLG2_2, Q15700): below the threshold
- pKd (DLG4_3, P78352): below the threshold
- pKd (DLG5_1, Q8TDM6): below the threshold
- pKd (LDB3, O75112): below the threshold
- pKd (FRMPD4, Q14CM0): below the threshold
- pKd (SIPA1L2, Q9P2F8): below the threshold
- pKd (SCRIB_3, Q14160): below the threshold
- pKd (DLG3_3, Q92796): below the threshold
- pKd (MAGI2_2, Q86UL8): below the threshold
- pKd (LIN7A, O14910): below the threshold
- pKd (MAGI1_2, Q96QZ7): below the threshold
- pKd (SHANK1, Q9Y566): below the threshold

Binder: KSRPENGTVC [TMEM178B, H3BS89]
- pKd (TJP2_1, Q9UDY2): below the threshold
- pKd (TJP1_2, Q07157): below the threshold
- pKd (GORASP2, Q9H8Y8): below the threshold
- pKd (RADIL, Q96JH8): below the threshold
- pKd (DLG3_2, Q92796): 3.54
- pKd (GRASP, Q7Z6J2): below the threshold
- pKd (MAGI2_3, Q86UL8): below the threshold
- pKd (SCRIB_2, Q14160): below the threshold
- pKd (ARHGEF12, Q9NZN5-2): 3.65
- pKd (APBA1_1, Q02410): below the threshold
- pKd (MAGI3_2, Q5TCQ9): below the threshold
- pKd (GRIP1_5, Q9Y3R0): below the threshold
- pKd (PDLIM1, O00151): below the threshold
- pKd (MPDZ_5, O75970): below the threshold
- pKd (MPP6, Q9NZW5): below the threshold
- pKd (IL16_1, Q14005): below the threshold
- pKd (DLG2_2, Q15700): below the threshold
- pKd (DLG4_3, P78352): 3.5
- pKd (DLG5_1, Q8TDM6): below the threshold
- pKd (LDB3, O75112): below the threshold
- pKd (FRMPD4, Q14CM0): 3.49
- pKd (SIPA1L2, Q9P2F8): below the threshold
- pKd (SCRIB_3, Q14160): 3.66
- pKd (DLG3_3, Q92796): below the threshold
- pKd (MAGI2_2, Q86UL8): below the threshold
- pKd (LIN7A, O14910): below the threshold
- pKd (MAGI1_2, Q96QZ7): below the threshold
- pKd (SHANK1, Q9Y566): below the threshold

Binder: IQISELETNV [SLC1A7, O00341]
- pKd (TJP2_1, Q9UDY2): below the threshold
- pKd (TJP1_2, Q07157): below the threshold
- pKd (GORASP2, Q9H8Y8): below the threshold
- pKd (RADIL, Q96JH8): below the threshold
- pKd (DLG3_2, Q92796): 4.66
- pKd (GRASP, Q7Z6J2): below the threshold
- pKd (MAGI2_3, Q86UL8): 3.96
- pKd (SCRIB_2, Q14160): 4.16
- pKd (ARHGEF12, Q9NZN5-2): 3.71
- pKd (APBA1_1, Q02410): below the threshold
- pKd (MAGI3_2, Q5TCQ9): 4.28
- pKd (GRIP1_5, Q9Y3R0): below the threshold
- pKd (PDLIM1, O00151): below the threshold
- pKd (MPDZ_5, O75970): below the threshold
- pKd (MPP6, Q9NZW5): below the threshold
- pKd (IL16_1, Q14005): 4.05
- pKd (DLG2_2, Q15700): 4.56
- pKd (DLG4_3, P78352): below the threshold
- pKd (DLG5_1, Q8TDM6): below the threshold
- pKd (LDB3, O75112): below the threshold
- pKd (FRMPD4, Q14CM0): 3.56
- pKd (SIPA1L2, Q9P2F8): below the threshold
- pKd (SCRIB_3, Q14160): 4.74
- pKd (DLG3_3, Q92796): 3.56
- pKd (MAGI2_2, Q86UL8): below the threshold
- pKd (LIN7A, O14910): 3.52
- pKd (MAGI1_2, Q96QZ7): below the threshold
- pKd (SHANK1, Q9Y566): 3.94

— article PMC9482650, “Quantitative fragmentomics allow affinity mapping of interactomes” (Nature Communications, 2022)
